The test system of data set [1] is MKN74, FU-97, SNU-1, SCC152, KYSE70, PC-10, HuH-7, TOV-21G, RMG-1 and STM-03 xenograft tumors. Kind of data set: In vivo drug efficacy, NOD scid/T cell-injected model, xenograft tumors of various cancer types. Also noted: species or system NOD scid mice. The conditions noted are these: 1 mg/kg once through the tail vein; compared to the vehicle-administered group. The protocol: (§1) Methods called an NOD scid/T cell-injected model, a humanized NOG mouse model, and a human CD3εδγ gene-modified mouse model were used in the in vivo drug efficacy evaluation. Assay using an NOD scid/T cell-injected model was performed as follows. […] T cells expanded by culturing human PBMCs in vitro were injected into the NOD scid mice with confirmed tumor establishment. The mice were treated by administering bispecific antibody-38 and bispecific antibody-30, -31, -32, or -33. Assay using a humanized NOG mouse model was performed as follows. CD34-positive hematopoietic stem cells derived from umbilical cord blood were transplanted into NOG mice by tail vein injection. Human T cells are constantly supplied in the mice, which are called humanized NOG mice. The PC-10 cell line was transplanted into humanized NOG mice. The humanized NOG mice with confirmed establishment of PC-10 tumor were treated by administering antibody-38. Assay using a human CD3εδγ gene-modified mouse model was performed as follows. Cells of mouse-derived cell line forced to express human GPC3 were transplanted into a human CD3εδγ gene-modified mouse model, which had been prepared according to Reference Example 10. The human CD3εδγ gene-modified mice with confirmed tumor establishment were treated by administering antibody-38. […]

Data set [2] has as its system MKN45 and NCI-H446 tumor tissues. Description: Comprehensive RNA analysis of tumor tissues using nCounter. The settings on record: in combination with paclitaxel or capecitabine; compared to antibody-38 or the chemotherapeutic agent alone. The data set is classed as in vivo, humanized NOG mice. The protocol: RNA was extracted from tumor samples after administration of paclitaxel, cisplatin, or capecitabine and antibody-38. Comprehensive RNA analysis using nCounter, tumor infiltrating lymphocyte (TIL) analysis, and pathological analysis were performed as follows.
(§2) The tumor samples were prepared as follows. The tumor samples when antibody-38 was used in combination with a chemotherapeutic agent in the humanized NOG mouse model were prepared by the procedure described below. 2.5 Gy of X ray was irradiated to NOG mice (In-Vivo Science Inc., Y). On the following day, 1×10^5 CD34-positive hematopoietic stem cells which are derived from umbilical cord blood were transplanted into the NOG mice by tail vein injection. After 16 to 20 weeks, each of human cancer cell lines (MKN45 and NCI-H446) was mixed with Matrigel™ Basement Membrane Matrix, and transplanted subcutaneously into the humanized NOG mice. The day of transplantation was defined as Day 0.
When tumor was established, the mice were separated into groups based on tumor size and body weight. Antibody-38 and the pharmaceutical agents for use in combination were administered according to the dose and dosing regimen described in Table 21. […]
RNA analysis was performed as follows. RNA was extracted (miRNeasy Mini Kit, QIAGEN) from the above-described tumor samples and the RNA concentrations were determined (NanoDrop, Thermo Fisher Scientific). […]

The test system of data set [3] is NCI-H446 tumor tissues. Description: Histopathological evaluation of HE-stained tumor tissues. The data set is classed as in vivo, humanized NOG mice. The protocol:
as §2
(§3) When tumor was established, the mice were separated into groups based on tumor size and body weight. Antibody-38 and the pharmaceutical agents for use in combination were administered according to the dose and dosing regimen described in Table 21. The mice were euthanized at the timing described in Table 21, and tumor was excised and preserved for use in tumor infiltrating lymphocyte (TIL) analysis, pathological analysis, or RNA analysis.
With respect to histological analysis of tumor tissues, tumor samples from mice six days after administration of antibody-38 and paclitaxel were fixed in 10% formaldehyde neutral buffer solution. […]

Data set [4] has as its system NCI-H446 tumor tissues. Kind of data set: Tumor infiltrating lymphocyte (TIL) analysis of tumor tissues. The format is in vivo, humanized NOG mice. The conditions noted are these: in combination with a chemotherapeutic agent, paclitaxel or capecitabine; sixth day after antibody-38 administration; compared to either alone. As to the method:
as §2, §3
TIL analysis was performed as follows. Tumor tissues which were dissected from mice transplanted with NCI-H446 described in Table 21 on the sixth day after antibody-38 administration were dissociated into cells by enzyme treatment using gentle MACS™ Octo Dissociator. […]

Data set [5] concerns PC-10 xenograft tumor. Kind of data set: In vivo drug efficacy, humanized NOG mouse model. Also noted: species or system humanized NOG mice. The settings on record: 0.008, 0.04, 0.2, or 1 mg/kg once through the tail vein, compared to the vehicle-administered group. As to the method: as §1

B1: antibody-38: anti-human CD3ε chain and anti-human GPC3 bispecific antibody; H chains SEQ ID NO: 385 and 402, common L chains SEQ ID NO: 410 (antibody)
heavy 1: QVQLVQSGAEVKKPGASVTVSCKASGYTFTDYEMHWIRQPPGEGLEWIGAIDGPTPDTAYSEKFKGRVTLTADKSTSTAYMELSSLTSEDTAVYYCTRFYSYTYWGQGTLVTVSSASTKGPSVFPLAPCSRSTSESTAALGCLVKDYFPEPVTVSWNSGALTSGVHTFPAVLQSSGLYSLSSVVTVPSSSLGTQTYTCNVDHKPSNTKVDKRVESKYGPPCPPCPAPEFRGGPKVFLFPPKPKDTLMISRTPEVTCVVVDVSQEDPEVQFNWYVDGVEVHNAKTKPREEQFASTYRVVSVLTVLHQDWLNGKEYKCKVSNKGLPSSIEKTISKAKGQPREPQVYTLPPSQEEMTKNQVSLTCLVKGFYPSDIAVEWESNGQPENNYKTTPPVLDSDGSFFLYSKLTVDKSRWQEGNVFSCSVMHEALHNHYTQESLSLSP
heavy 2: QVQLVESGGGVVQPGGSLRLSCAASGFTFSNAWMHWVRQAPGKGLEWVAQIKDKSQNYATYVAESVKGRFTISRADSKNSIYLQMNSLKTEDTAVYYCRYVHYAAGYGVDIWGQGTTVTVSSASTKGPSVFPLAPCSRSTSESTAALGCLVKDYFPEPVTVSWNSGALTSGVHTFPAVLQSSGLYSLSSVVTVPSSSLGTKTYTCNVDHKPSNTKVDKRVESKYGPPCPPCPAPEFRGGPKVFLFPPKPKDTLMISRTPEVTCVVVDVSQEDPEVQFNWYVDGVEVHNAKTKPREEQFASTYRVVSVLTVLHQDWLNGKEYKCKVSNKGLPSSIEKTISKAKGQPREPQVYTLPPSQKEMTKNQVSLTCLVKGFYPSDIAVEWESNGQPENNYKTTPPVLDSDGSFFLYSKLTVDKSRWQEGNVFSCSVMHEALHNHYTQKSLSLSP
light: DIVMTQSPLSLPVTPGEPASISCRSSQPLVHSNRNTYLHWYQQKPGQAPRLLIYKVSNRFSGVPDRFSGSGSGTDFTLKISRVEAEDVGVYYCGQGTQVPYTFGQGTKLEIKRTVAAPSVFIFPPSDEQLKSGTASVVCLLNNFYPREAKVQWKVDNALQSGNSQESVTEQDSKDSTYSLSSTLTLSKADYEKHKVYACEVTHQGLSSPVTKSFNRGEC
modifications: An artificially generated sequence
Consider B1, for which the anti-tumor effect entry in data set [1] is recorded as “evident anti-tumor effect”; in data set [5] it was “evident, dose-dependent anti-tumor effect”. Moreover, the “expressions of genes involved in the progress of cell cycle” value in data set [2] is on record as “suppressed”. In addition, the “expressions of immune cell markers, chemokines, cytokines, genes involved in cell death, genes involved in cell cycle regulation” value in data set [2] is reported as “increased”. The immune cell infiltration entry in data set [3] (antibody 38 administered, six days after administration) is listed as “observed around the tumor periphery”. Also, the “immune cell infiltration area” value in data set [3] (antibody-38 in combination with paclitaxel) was “expanded”. In data set [4], the “cell populations expressing T cell markers, activated T cell markers, and proteins involved in cytotoxic activity” value was “increased”.

Values taken from patent publication US20250066503A1, “CELL INJURY INDUCING THERAPEUTIC DRUG FOR USE IN CANCER THERAPY” (CHUGAI SEIYAKU KABUSHIKI KAISHA, priority 2016, published 2025).
